Paper PMC9352680, “A comprehensive thermodynamic model for RNA binding by the Saccharomyces cerevisiae Pumilio protein PUF4”

T1: PUF4 RNA-binding domain (Saccharomyces cerevisiae, UniProt P25339 537-888)
T1 sequence: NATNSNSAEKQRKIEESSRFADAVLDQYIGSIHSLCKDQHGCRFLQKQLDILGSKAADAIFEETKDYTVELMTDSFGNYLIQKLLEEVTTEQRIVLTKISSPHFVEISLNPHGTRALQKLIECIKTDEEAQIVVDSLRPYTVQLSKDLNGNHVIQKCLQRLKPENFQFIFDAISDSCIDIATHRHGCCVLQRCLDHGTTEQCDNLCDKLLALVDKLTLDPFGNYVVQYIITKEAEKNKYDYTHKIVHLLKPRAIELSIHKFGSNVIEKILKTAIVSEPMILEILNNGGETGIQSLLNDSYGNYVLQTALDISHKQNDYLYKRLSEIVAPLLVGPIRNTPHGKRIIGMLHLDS


Target: T1, PUF4 RNA-binding domain
Experiment: Mg; RNA-MaP; 20 mM Na-HEPES pH 7.4, 30 mM KOAc, 0.75 mM MgCl2, 0.1% Tween-20, 5% glycerol, 0.1 mg/mL BSA, 2 mM DTT; 25 C; 0.0125-409.6 nM protein
Conditions: tags: N-His6-TEV cleaved; C-SNAP kept, Cy3B-labelled; label: tethered on chip by stalled RNA polymerase

Row | Binder | Kd [µM]
1 | ACAAACAAACACUUAUUAUGACAAAC (ssRNA) [Id_ii_S3_P5E.4_K5.3_C5.2_[C-2A]_[T-1A]_H5.3_A5.1_F5.1_T5.2_[A12G]] | > 2.3
2 | ACAAACAUACACUUAUUACGACAAAC (ssRNA) [Id_ii_S3_P5E.4_K5.3_C5.2_[C-2A]_H5.3_A5.1_F5.1_T5.2_[T11C]_[A12G]] | > 2.3
3 | ACAAACACACACUUAUUAUCACAAAC (ssRNA) [Id_ii_S3_P5E.4_K5.3_C5.2_[C-2A]_[T-1C]_H5.3_A5.1_F5.1_T5.2_[A12C]] | > 2.3
4 | ACAAACACACACUUAUUACUACAAAC (ssRNA) [Id_ii_S3_P5E.4_K5.3_C5.2_[C-2A]_[T-1C]_H5.3_A5.1_F5.1_T5.2_[T11C]_[A12T]] | > 2.3
5 | ACAAACUUACACUUAUUAUCACAAAC (ssRNA) [Id_ii_S3_P5E.4_K5.3_C5.2_[C-2T]_H5.3_A5.1_F5.1_T5.2_[A12C]] | > 2.3
6 | UCUCUUUCUUUUAUUAUCUCUU (ssRNA) [Ib_S1_P5E.1_K5.1_C5.1_H5.1_[G2C]_[A4T]_A5.1_F5.1_T5.1] | > 2.3
7 | ACAAACGUACACUUAUUACCACAAAC (ssRNA) [Id_ii_S3_P5E.4_K5.3_C5.2_[C-2G]_H5.3_A5.1_F5.1_T5.2_[T11C]_[A12C]] | 0.972
8 | ACAAACUCACACUUAUUAAUACAAAC (ssRNA) [Id_ii_S3_P5E.4_K5.3_C5.2_[C-2T]_[T-1C]_H5.3_A5.1_F5.1_T5.2_[T11A]_[A12T]] | > 2.3
9 | ACAAACCGACACUUAUUACGACAAAC (ssRNA) [Id_ii_S3_P5E.4_K5.3_C5.2_[T-1G]_H5.3_A5.1_F5.1_T5.2_[T11C]_[A12G]] | > 2.3
10 | ACAAACGCACACUUAUUAUAACAAAC (ssRNA) [Id_ii_S3_P5E.4_K5.3_C5.2_[C-2G]_[T-1C]_H5.3_A5.1_F5.1_T5.2] | > 2.3
11 | ACAAACAUACACUUAUUAAUACAAAC (ssRNA) [Id_ii_S3_P5E.4_K5.3_C5.2_[C-2A]_H5.3_A5.1_F5.1_T5.2_[T11A]_[A12T]] | > 2.3
12 | ACAAACGAACACUUAUUAACACAAAC (ssRNA) [Id_ii_S3_P5E.4_K5.3_C5.2_[C-2G]_[T-1A]_H5.3_A5.1_F5.1_T5.2_[T11A]_[A12C]] | > 2.3
13 | ACAAACCGACACUUAUUACUACAAAC (ssRNA) [Id_ii_S3_P5E.4_K5.3_C5.2_[T-1G]_H5.3_A5.1_F5.1_T5.2_[T11C]_[A12T]] | > 2.3
14 | ACAAACAGACACUUAUUAGAACAAAC (ssRNA) [Id_ii_S3_P5E.4_K5.3_C5.2_[C-2A]_[T-1G]_H5.3_A5.1_F5.1_T5.2_[T11G]] | > 2.3
15 | ACAAACAAACACUUAUUAAAACAAAC (ssRNA) [Id_ii_S3_P5E.4_K5.3_C5.2_[C-2A]_[T-1A]_H5.3_A5.1_F5.1_T5.2_[T11A]] | > 2.3
16 | ACAAACAAACACUUAUUAAGACAAAC (ssRNA) [Id_ii_S3_P5E.4_K5.3_C5.2_[C-2A]_[T-1A]_H5.3_A5.1_F5.1_T5.2_[T11A]_[A12G]] | > 2.3
17 | ACAAACACACACUUAUUAACACAAAC (ssRNA) [Id_ii_S3_P5E.4_K5.3_C5.2_[C-2A]_[T-1C]_H5.3_A5.1_F5.1_T5.2_[T11A]_[A12C]] | > 2.3
18 | ACAAACUGACACUUAUUAUAACAAAC (ssRNA) [Id_ii_S3_P5E.4_K5.3_C5.2_[C-2T]_[T-1G]_H5.3_A5.1_F5.1_T5.2] | > 2.3
19 | ACAAACUCACACUUAUUAAAACAAAC (ssRNA) [Id_ii_S3_P5E.4_K5.3_C5.2_[C-2T]_[T-1C]_H5.3_A5.1_F5.1_T5.2_[T11A]] | > 2.3
20 | UCUCUUUCUGUUAUUAUCUCUU (ssRNA) [Ib_S1_P5E.1_K5.1_C5.1_H5.1_[G2C]_[A4G]_A5.1_F5.1_T5.1] | > 2.3
21 | ACAAACAAACACUUAUUAUAACAAAC (ssRNA) [Id_ii_S3_P5E.4_K5.3_C5.2_[C-2A]_[T-1A]_H5.3_A5.1_F5.1_T5.2] | > 2.3
22 | ACAAACCGACACUUAUUACCACAAAC (ssRNA) [Id_ii_S3_P5E.4_K5.3_C5.2_[T-1G]_H5.3_A5.1_F5.1_T5.2_[T11C]_[A12C]] | > 2.3
23 | ACAAACAGACACUUAUUAUCACAAAC (ssRNA) [Id_ii_S3_P5E.4_K5.3_C5.2_[C-2A]_[T-1G]_H5.3_A5.1_F5.1_T5.2_[A12C]] | > 2.3
24 | ACAAACUGACACUUAUUACCACAAAC (ssRNA) [Id_ii_S3_P5E.4_K5.3_C5.2_[C-2T]_[T-1G]_H5.3_A5.1_F5.1_T5.2_[T11C]_[A12C]] | > 2.3

Row | Binder | Kd [µM]
25 | ACAAACAAACACUUAUUAUCACAAAC (ssRNA) [Id_ii_S3_P5E.4_K5.3_C5.2_[C-2A]_[T-1A]_H5.3_A5.1_F5.1_T5.2_[A12C]] | > 2.3
26 | UCUCUUUCUCUUAUUAUCUCUU (ssRNA) [Ib_S1_P5E.1_K5.1_C5.1_H5.1_[G2C]_[A4C]_A5.1_F5.1_T5.1] | > 2.3
27 | ACAAACUAACACUUAUUACAACAAAC (ssRNA) [Id_ii_S3_P5E.4_K5.3_C5.2_[C-2T]_[T-1A]_H5.3_A5.1_F5.1_T5.2_[T11C]] | > 2.3
28 | ACAAACAGACACUUAUUACCACAAAC (ssRNA) [Id_ii_S3_P5E.4_K5.3_C5.2_[C-2A]_[T-1G]_H5.3_A5.1_F5.1_T5.2_[T11C]_[A12C]] | > 2.3
29 | ACAAACGCACACUUAUUAUGACAAAC (ssRNA) [Id_ii_S3_P5E.4_K5.3_C5.2_[C-2G]_[T-1C]_H5.3_A5.1_F5.1_T5.2_[A12G]] | > 2.3
30 | ACAAACAGACACUUAUUAUUACAAAC (ssRNA) [Id_ii_S3_P5E.4_K5.3_C5.2_[C-2A]_[T-1G]_H5.3_A5.1_F5.1_T5.2_[A12T]] | > 2.3
31 | ACAAACUCACACUUAUUAUGACAAAC (ssRNA) [Id_ii_S3_P5E.4_K5.3_C5.2_[C-2T]_[T-1C]_H5.3_A5.1_F5.1_T5.2_[A12G]] | > 2.3
32 | ACAAACUCACACUUAUUACAACAAAC (ssRNA) [Id_ii_S3_P5E.4_K5.3_C5.2_[C-2T]_[T-1C]_H5.3_A5.1_F5.1_T5.2_[T11C]] | > 2.3
33 | ACAAACGUACACUUAUUAUUACAAAC (ssRNA) [Id_ii_S3_P5E.4_K5.3_C5.2_[C-2G]_H5.3_A5.1_F5.1_T5.2_[A12T]] | 0.703
34 | ACAAACAAACACUUAUUAGGACAAAC (ssRNA) [Id_ii_S3_P5E.4_K5.3_C5.2_[C-2A]_[T-1A]_H5.3_A5.1_F5.1_T5.2_[T11G]_[A12G]] | > 2.3
35 | ACAAACUGACACUUAUUACGACAAAC (ssRNA) [Id_ii_S3_P5E.4_K5.3_C5.2_[C-2T]_[T-1G]_H5.3_A5.1_F5.1_T5.2_[T11C]_[A12G]] | > 2.3
36 | ACAAACAAACACUUAUUACCACAAAC (ssRNA) [Id_ii_S3_P5E.4_K5.3_C5.2_[C-2A]_[T-1A]_H5.3_A5.1_F5.1_T5.2_[T11C]_[A12C]] | > 2.3
37 | ACAAACUGACACUUAUUAAGACAAAC (ssRNA) [Id_ii_S3_P5E.4_K5.3_C5.2_[C-2T]_[T-1G]_H5.3_A5.1_F5.1_T5.2_[T11A]_[A12G]] | > 2.3
38 | ACAAACUUACACUUAUUACGACAAAC (ssRNA) [Id_ii_S3_P5E.4_K5.3_C5.2_[C-2T]_H5.3_A5.1_F5.1_T5.2_[T11C]_[A12G]] | > 2.3
39 | ACAAACAGACACUUAUUACAACAAAC (ssRNA) [Id_ii_S3_P5E.4_K5.3_C5.2_[C-2A]_[T-1G]_H5.3_A5.1_F5.1_T5.2_[T11C]] | > 2.3
40 | ACAAACGUACACUUAUUAAUACAAAC (ssRNA) [Id_ii_S3_P5E.4_K5.3_C5.2_[C-2G]_H5.3_A5.1_F5.1_T5.2_[T11A]_[A12T]] | 0.707
41 | UCUCUUUAUGUUAUUAUCUCUU (ssRNA) [Ib_S1_P5E.1_K5.1_C5.1_H5.1_[G2A]_[A4G]_A5.1_F5.1_T5.1] | 2.07
42 | ACAAACUUACACUUAUUAACACAAAC (ssRNA) [Id_ii_S3_P5E.4_K5.3_C5.2_[C-2T]_H5.3_A5.1_F5.1_T5.2_[T11A]_[A12C]] | > 2.3
43 | ACAAACGUACACUUAUUAUCACAAAC (ssRNA) [Id_ii_S3_P5E.4_K5.3_C5.2_[C-2G]_H5.3_A5.1_F5.1_T5.2_[A12C]] | 1.19
44 | ACAAACAUACACUUAUUAGGACAAAC (ssRNA) [Id_ii_S3_P5E.4_K5.3_C5.2_[C-2A]_H5.3_A5.1_F5.1_T5.2_[T11G]_[A12G]] | > 2.3
45 | ACAAACGAACACUUAUUAUCACAAAC (ssRNA) [Id_ii_S3_P5E.4_K5.3_C5.2_[C-2G]_[T-1A]_H5.3_A5.1_F5.1_T5.2_[A12C]] | > 2.3
46 | ACAAACUCACACUUAUUACGACAAAC (ssRNA) [Id_ii_S3_P5E.4_K5.3_C5.2_[C-2T]_[T-1C]_H5.3_A5.1_F5.1_T5.2_[T11C]_[A12G]] | > 2.3
47 | ACAAACAAACACUUAUUACAACAAAC (ssRNA) [Id_ii_S3_P5E.4_K5.3_C5.2_[C-2A]_[T-1A]_H5.3_A5.1_F5.1_T5.2_[T11C]] | > 2.3
48 | ACAAACUCACACUUAUUAGCACAAAC (ssRNA) [Id_ii_S3_P5E.4_K5.3_C5.2_[C-2T]_[T-1C]_H5.3_A5.1_F5.1_T5.2_[T11G]_[A12C]] | > 2.3
